Laboratory results published in the supplement of paper PMC7877785.
± gives the uncertainty stated by the source.

Test: self-splicing fitness, log relative to wild type (ln ratio); higher = more splicing; Tetrahymena group I intron in knt gene, E. coli kanamycin selection, DiMSum; sequences stand for … in CUCUCU…GGAGGGAAAAGUUAUCAGGCAUGCACCUGGUAGCUAGUCUUUAAACCAAUAGAUUGCAUCGGUUUAAAAGGCAAGACCGUCAAAUUGCGGGAAAGGGGUCAACAGCCGUUCAGUACCAAGUCUCAGGGGAAACUUUGAGAUGGCCUUGCAAAGGGUAUGGUAAUAAGCUGACGGACAUGGUCCUAACCACGCAGCCAAGUCCUAAGUCAACAGAUCUUCUGUUGAUAUGGAUGCAGUUCACAGACUAAAUGUCGGUCGGGGAAGAUGUAUUCUUCUCAUAAGAUAUAGUCGGACCUCUCCUUAAUGGGAGCUAGCGGAUGAAGUGAUGCAACACUGGAGCCGCUGGGAACUAAUUUGUAUGCGAAAGUAUAUUGAUUAGUUUUGGAGUACUCGUGGUCG
Method in brief: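 Library with all eight P1ex-region intron nucleotides randomised, intron inside the knt kanamycin-resistance gene on pET-22b(+), in E. coli BL21(DE3). Cells grew overnight at 37°C or 30°C on LB agar with or without 25 μg/mL kanamycin (plus 100 μg/mL carbenicillin, 50 μM IPTG, 0.2% rhamnose), in six replicate transformations. Pooled colonies were amplicon-sequenced on Illumina HiSeq 2500. DiMSum fitness is the error-weighted combination of wild-type-normalised replicate fold changes, kanamycin versus none.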

Sequence	self-splicing fitness (ln) (30 °C)	self-splicing fitness (ln) (37 °C)
UCGCAGCAAUAUUACGACAG	-2.6 ± 0.25	-0.246 ± 0.35
GCAUAGCAAUAUUACGAUCA	-2.05 ± 0.34	0.131 ± 0.22
UACGAGCAAUAUUACGACCA	-1.71 ± 0.42	
AACUAGCAAUAUUACGAUAU	-1.26 ± 0.077	-0.429 ± 0.11
UCUCAGCAAUAUUACGUUCC	-2.72 ± 0.36	-0.417 ± 0.28
ACCCAGCAAUAUUACGUGGA	-0.54 ± 0.048	0.15 ± 0.057
ACCAAGCAAUAUUACGUCGG	-2.09 ± 0.074	-1.36 ± 0.09
CGUGAGCAAUAUUACGGCCU	-2.22 ± 0.23	-3.57 ± 0.46
UUUAAGCAAUAUUACGGCAA	-0.171 ± 0.093	0.00377 ± 0.11
CCUAAGCAAUAUUACGCUCA	-3.32 ± 0.27	-3.18 ± 0.4
AUUAAGCAAUAUUACGUCCG	-1.47 ± 0.13	-0.734 ± 0.17
CACCAGCAAUAUUACGACUC	-3.42 ± 0.21	-1.62 ± 0.18
GUAUAGCAAUAUUACGGCAG	-4.25 ± 0.42	-1.5 ± 0.25
UGAGAGCAAUAUUACGAGUU	-3.31 ± 0.23	-2.3 ± 0.34
ACCCAGCAAUAUUACGUAAA	-0.691 ± 0.053	-0.513 ± 0.075
UAAUAGCAAUAUUACGCGUG	-1.37 ± 0.1	-0.125 ± 0.12
AUAAAGCAAUAUUACGCUGG	-1.43 ± 0.088	-0.293 ± 0.13
GCGAAGCAAUAUUACGUGAC	-1.51 ± 0.28	-2.05 ± 0.29
UCUCAGCAAUAUUACGAGUC	-3.98 ± 0.18	-2.93 ± 0.18
AUCGAGCAAUAUUACGUUGA	-3.44 ± 0.27	-2.94 ± 0.22
GUCUAGCAAUAUUACGGAAG	-0.159 ± 0.09	0.218 ± 0.12
UUUGAGCAAUAUUACGCUUC	-2.18 ± 0.31	-2.53 ± 0.44
CGUGAGCAAUAUUACGGUAC	-3.78 ± 0.35	-1.63 ± 0.31
GAUAAGCAAUAUUACGUUGC	-3.38 ± 0.15	-2.3 ± 0.21

Sequence	self-splicing fitness (ln) (30 °C)	self-splicing fitness (ln) (37 °C)
CCAUAGCAAUAUUACGAUCC	-3.2 ± 0.35	-1.43 ± 0.41
GAAGAGCAAUAUUACGGUCC	-2.17 ± 0.26	-2.32 ± 0.33
CGGUAGCAAUAUUACGGCGG	0.494 ± 0.093	0.0118 ± 0.096
CUCAAGCAAUAUUACGUAGC	-4.09 ± 0.25	-2.59 ± 0.22
GCUUAGCAAUAUUACGCCAG	-1.89 ± 0.33	-1.76 ± 0.33
CGGAAGCAAUAUUACGGUUU	-4.42 ± 0.36	-3.88 ± 0.31
UAAUAGCAAUAUUACGGAAG	-3.02 ± 0.21	-0.76 ± 0.16
AUUGAGCAAUAUUACGUUCC	-1.94 ± 0.23	-2.1 ± 0.3
CAAAAGCAAUAUUACGUAAA	-1.47 ± 0.092	-1.32 ± 0.11
CAUGAGCAAUAUUACGUGAG	-3.88 ± 0.37	-2.55 ± 0.24
CCGGAGCAAUAUUACGGGGC	-3.78 ± 0.26	-2.55 ± 0.44
GCGAAGCAAUAUUACGCUUC	-4.53 ± 0.46	-2.58 ± 0.29
UCCCAGCAAUAUUACGCAAG	-3.45 ± 0.16	-2.69 ± 0.21
CUGAAGCAAUAUUACGAAUU	-3.24 ± 0.12	-1.86 ± 0.14
CAAAAGCAAUAUUACGACAU	-2.345 ± 0.013	-1.34 ± 0.033
AGUGAGCAAUAUUACGAUGU	-3.64 ± 0.3	-2.51 ± 0.25
CAAGAGCAAUAUUACGAUAG	-1.53 ± 0.11	-0.239 ± 0.13
CGACAGCAAUAUUACGGCAA	-2.12 ± 0.21	-1.58 ± 0.17
CGGAAGCAAUAUUACGGGAA	-3.16 ± 0.46	-2.3 ± 0.28
AGUUAGCAAUAUUACGGCAG	-0.102 ± 0.13	-1.48 ± 0.21
ACUAAGCAAUAUUACGCGAG	-1.77 ± 0.082	-0.355 ± 0.089
ACGGAGCAAUAUUACGCAUG	-2.65 ± 0.2	-2.28 ± 0.23
CUCGAGCAAUAUUACGGAAC	-3.24 ± 0.24	-1.98 ± 0.25
